In PMC12467718:

Target: mouse laminin (mouse)
Assay: ELISA; ELISA-type: mouse laminin coated on a black polystyrene plate, 50 µg/mL biotinylated-Gal-8, 37 °C 1 h, Streptavidin-Alexa 488, fluorescence (RFU)

relative fluorescence units (RFU): 4000 RFU
Substance: biotinylated human Galectin-8 (natural protein)
